Data on 1 substance can be found in publication PMC3474754.

This test deals with full-length uncleaved Reelin (FL-Reelin) (UniProt Q60841). Description: cross-linking; BS3 cross-linker, 30 minutes on ice, on FL- or C-cleaved Reelin in conditioned medium; anti-Reelin (G10) immunoblot. For orientation: A western blot detects proteins with antibodies after separation by electrophoresis.

On to “full-length uncleaved Reelin (FL-Reelin), Q60841 27-3461”, for which the stoichiometry N is 2.

Broadly, the stoichiometry N is a count of units in the complex or per binding partner.
